# Reference: paper PMC2270844, “Functional role of the additional domains in inulosucrase (IslA) from Leuconostoc citreum CW28” (BMC Biochemistry, 2008)
# Substrate: OC[C@H]1O[C@@](CO)(O[C@H]2O[C@H](CO)[C@@H](O)[C@H](O)[C@H]2O)[C@@H](O)[C@@H]1O
# Assay: initial sucrose consumption rate, reducing sugar (DNS) assay, Michaelis-Menten fit
# Format: biochemical, Leuconostoc citreum
# Conditions: pH 6.5 phosphate 50 mM, 30°C, 1 mM CaCl2, total Km (hydrolysis plus transglycosylation)
# Source text: initial sucrose consumption rate, reducing sugar (DNS) assay, Michaelis-Menten fit on IslA2
protein,measurement,value
"IslA2 (Leuconostoc citreum) (protein, C-terminal truncation, last 551 residues deleted; variable region, catalytic domain and transition region kept; 102 kDa plus 16 kDa N-terminal thioredoxin fusion, His tag; E. coli TOP10, pBAD/Thio TOPO, Ni-NTA) DVNQPLLAQENFSGNKTEPVPDKSNKNESVKDSKVATSDELAKDSKVATSDELAKDSKVATSDELAKDSKVATSDELVKDSKVATSDELAKDSKVATSDELAKDSKVATSDELAKDSKVATSDELAKDSKVATSDELAKDSKAPTNDVSVRAEKKSSLIDSPELNVKMSEMTSVPNLISDENSKNLVNSNELINGLSKRSLEIAHQAGIDVSRLNDIQKAALNKIKLVNEDGNKYVLDNTGSDYTKNTIIDKNNPDDTTKTTHITFANLDDAIKLAQKPDPKTTIPVFNASQINNLPASIFKDAQTNKVEKMDVWDSWALQDSKTGEVYNYHGKQVVFALMGAPLVQGDTHIYMLYNNYNNAKLDGWVNAGPVFGYNAKPESQEWSGSAVVNSDDSIQLFYTRVADDWKQALATVNIKITNSENSLGIQSLQNDHILFEGDGYFYSRKDQLKPQADMFTLRDPKLIELDDGERYLTFEANTGIYDEASDQQTVNLNNYGGGLTYDVARMLGVVNNSNRALYSSTANGAIGLLKLKGDYFNPILDRLYKPLITAVGVTDEIERANIVPFNGKYYLFTDSRFNRSAADNSPMSMAPDGAMMMGFVSDSLFGDYKPLNGNGIVLVTNNSFTSRTNTYSWYTVPVKGRPDLMLVTSYMTNRGLASGTDQYSTFAPSFLLKIDGDQTHVLNTVTEQGDWVWGDDDHSIVELLALNTEDAYLTNNQKNINYSPDWSNIDGYGYPIVTNIKDVDLTFYISGILSPDSLFKNAPGRHQGARIIGSTSQYNTEKVSAIKEYTDDLNTIWYLVNLAGNNFWIKGSSLVTVPMTDSTFRNAYIVKDSDMYLDAPQGETNAKYYQSSNSYNDAYVIVGGEYKDAHGITWNLIKLNDKILWINKNSLAISFSRDLN",Km,24 mM
same,kcat,28.2 s⁻¹
same,kcat/Km,1170 M⁻¹ s⁻¹
